From PMC10011603, “TRAK adaptors regulate the recruitment and activation of dynein and kinesin in mitochondrial transport” (Nature Communications, 2023)

Columns and labels:
[1] = biological target: T1, full-length TRAK1 (TRAK1^1–953) (human, UniProt Q9UPV9 1-953); test: single-molecule TIRF colocalisation on microtubules; three-colour imaging of Alexa488-KIF5B, LD555-TRAK1 1-532 (or full-length TRAK1) and LD655-Miro1 1-592; 10 nM MAP7; 0, 0.1 and 2 mM Ca2+; conditions: both partners purified
T1 construct: TRAK1, human, residues 1-953, full length; source: HEK 293 F GNTI-/- cells, PEI transfection, purified (TRAK purification procedure); not shown: His6-ZZ, N-terminal, cleaved; SNAP-tag or GFP, C-terminal, kept
T1 sequence (looked up): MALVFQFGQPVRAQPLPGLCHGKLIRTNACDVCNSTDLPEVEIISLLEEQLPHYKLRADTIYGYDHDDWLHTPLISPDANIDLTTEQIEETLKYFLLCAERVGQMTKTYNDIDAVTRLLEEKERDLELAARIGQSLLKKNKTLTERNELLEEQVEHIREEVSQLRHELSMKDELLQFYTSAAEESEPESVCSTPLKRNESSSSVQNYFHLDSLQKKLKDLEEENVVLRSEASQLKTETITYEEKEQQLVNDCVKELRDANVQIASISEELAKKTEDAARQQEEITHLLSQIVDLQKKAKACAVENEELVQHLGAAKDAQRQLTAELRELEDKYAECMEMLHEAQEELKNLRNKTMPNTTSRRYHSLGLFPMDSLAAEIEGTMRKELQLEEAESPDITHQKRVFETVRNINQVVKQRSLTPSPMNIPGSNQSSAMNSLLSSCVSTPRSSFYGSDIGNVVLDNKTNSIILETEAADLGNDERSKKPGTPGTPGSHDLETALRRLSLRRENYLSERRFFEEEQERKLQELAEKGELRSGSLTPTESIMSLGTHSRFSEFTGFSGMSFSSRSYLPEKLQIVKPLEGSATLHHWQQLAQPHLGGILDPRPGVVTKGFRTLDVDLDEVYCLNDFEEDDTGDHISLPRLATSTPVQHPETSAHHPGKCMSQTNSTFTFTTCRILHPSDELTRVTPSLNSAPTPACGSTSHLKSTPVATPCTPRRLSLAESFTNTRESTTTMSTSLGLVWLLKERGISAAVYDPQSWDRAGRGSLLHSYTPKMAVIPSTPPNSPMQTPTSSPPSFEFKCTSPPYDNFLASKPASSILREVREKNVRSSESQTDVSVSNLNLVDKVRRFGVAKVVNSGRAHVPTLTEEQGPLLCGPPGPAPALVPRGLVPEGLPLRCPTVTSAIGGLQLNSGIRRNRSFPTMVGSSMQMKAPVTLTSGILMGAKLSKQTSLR

[2] = biological target: T2, full-length TRAK2 (TRAK2^1–914) (human, UniProt O60296 1-914); test: co-IP; purified proteins, 10 µg each, GFP-Trap beads, MB buffer with 100 mM NaCl and BSA; KIF5B-GFP-SNAPf, Miro1 1-592 and TRAK1 1-532, full-length TRAK1 or full-length TRAK2; with GTPγS or GDP; 0, 100 nM or 2 mM Ca2+; conditions: both partners purified
T2 construct: TRAK2, human, residues 1-914, full length; source: HEK 293 F GNTI-/- cells, PEI transfection, purified (TRAK purification procedure); not shown: His6-ZZ, N-terminal, cleaved; SNAP-tag or GFP, C-terminal, kept
T2 sequence (looked up): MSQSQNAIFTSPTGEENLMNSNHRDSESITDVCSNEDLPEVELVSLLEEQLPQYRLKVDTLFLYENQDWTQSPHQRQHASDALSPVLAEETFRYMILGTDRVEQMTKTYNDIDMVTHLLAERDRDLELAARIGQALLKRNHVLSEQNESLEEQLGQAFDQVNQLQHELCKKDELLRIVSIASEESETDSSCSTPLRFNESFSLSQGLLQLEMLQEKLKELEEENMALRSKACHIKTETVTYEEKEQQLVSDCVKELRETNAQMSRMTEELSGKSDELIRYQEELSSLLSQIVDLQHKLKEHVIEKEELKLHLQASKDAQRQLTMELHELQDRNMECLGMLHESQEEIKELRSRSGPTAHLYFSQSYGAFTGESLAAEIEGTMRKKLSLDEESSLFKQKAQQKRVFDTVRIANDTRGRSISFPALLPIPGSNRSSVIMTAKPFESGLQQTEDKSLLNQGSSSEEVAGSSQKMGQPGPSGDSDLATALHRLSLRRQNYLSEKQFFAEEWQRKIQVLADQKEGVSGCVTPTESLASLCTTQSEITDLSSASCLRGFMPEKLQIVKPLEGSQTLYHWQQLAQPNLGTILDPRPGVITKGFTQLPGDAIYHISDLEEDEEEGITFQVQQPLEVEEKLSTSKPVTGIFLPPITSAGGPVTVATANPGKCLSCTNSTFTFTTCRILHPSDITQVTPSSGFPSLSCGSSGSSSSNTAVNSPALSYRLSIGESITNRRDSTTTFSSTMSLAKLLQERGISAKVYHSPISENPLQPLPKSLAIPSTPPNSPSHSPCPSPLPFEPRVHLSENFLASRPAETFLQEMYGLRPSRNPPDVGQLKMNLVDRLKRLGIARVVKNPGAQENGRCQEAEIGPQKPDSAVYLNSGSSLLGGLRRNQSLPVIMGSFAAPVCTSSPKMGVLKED

- binding result [1]: binds
- binding result [2]: binds
B1: Miro1^1–592 (Miro1^1–592-SNAP-psc-StrepII) (domain or fragment, human, UniProt Q8IXI2 1-592, looked up)
chain: MKKDVRILLVGEPRVGKTSLIMSLVSEEFPEEVPPRAEEITIPADVTPERVPTHIVDYSEAEQSDEQLHQEISQANVICIVYAVNNKHSIDKVTSRWIPLINERTDKDSRLPLILVGNKSDLVEYSSMETILPIMNQYTEIETCVECSAKNLKNISELFYYAQKAVLHPTGPLYCPEEKEMKPACIKALTRIFKISDQDNDGTLNDAELNFFQRICFNTPLAPQALEDVKNVVRKHISDGVADSGLTLKGFLFLHTLFIQRGRHETTWTVLRRFGYDDDLDLTPEYLFPLLKIPPDCTTELNHHAYLFLQSTFDKHDLDRDCALSPDELKDLFKVFPYIPWGPDVNNTVCTNERGWITYQGFLSQWTLTTYLDVQRCLEYLGYLGYSILTEQESQASAVTVTRDKKIDLQKKQTQRNVFRCNVIGVKNCGKSGVLQALLGRNLMRQKKIREDHKSYYAINTVYVYGQEKYLLLHDISESEFLTEAEIICDVVCLVYDVSNPKSFEYCARIFKQHFMDSRIPCLIVAAKSDLHEVKQEYSISPTDFCRKHKMPPPQAFTCNTADAPSKDIFVKLTTMAMYPHVTQADLKSSTF
modifications: LD655 dye on the SNAP tag in motility assays
notes: mitochondrial Rho GTPase 1 (Miro1), human, residues 1-592, lacks the transmembrane domain; A PreScission site (psc) stands between SNAP and StrepII; no cleavage is told; also called Miro1^1–592-StrepII; Miro1^1–592-SNAPf-StrepII; source: purified (Streptactin Sepharose, eluted with desthiobiotin); not shown: SNAP, C-terminal, kept; StrepII, C-terminal, kept
